Measured values as given in PMC9482650, “Quantitative fragmentomics allow affinity mapping of interactomes” (Nature Communications, 2022).

T1: APBA3_1, O96018
T1 sequence (O96018 389-490, limits assumed, looked up): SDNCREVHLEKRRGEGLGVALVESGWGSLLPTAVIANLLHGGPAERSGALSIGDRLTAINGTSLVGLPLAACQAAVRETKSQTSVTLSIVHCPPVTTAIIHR

T2: CARD11, Q9BXL7
T2 sequence (Q9BXL7 662-765, limits assumed, looked up): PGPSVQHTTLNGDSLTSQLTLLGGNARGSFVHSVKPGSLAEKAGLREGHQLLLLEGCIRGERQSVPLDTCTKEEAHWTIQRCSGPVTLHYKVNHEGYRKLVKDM

T3: GRIP1_7, Q9Y3R0
T3 sequence (Q9Y3R0 999-1096, limits assumed, looked up): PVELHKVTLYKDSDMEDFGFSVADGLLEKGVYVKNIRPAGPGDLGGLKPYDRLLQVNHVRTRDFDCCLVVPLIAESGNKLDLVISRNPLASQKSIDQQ

T4: HTRA3, P83110
T4 sequence (P83110 354-453, limits assumed, looked up): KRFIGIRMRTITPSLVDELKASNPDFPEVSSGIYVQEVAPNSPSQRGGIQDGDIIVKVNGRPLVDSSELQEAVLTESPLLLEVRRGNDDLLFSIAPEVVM

T5: LIN7C, Q9NUP9
T5 sequence (Q9NUP9 88-185, limits assumed, looked up): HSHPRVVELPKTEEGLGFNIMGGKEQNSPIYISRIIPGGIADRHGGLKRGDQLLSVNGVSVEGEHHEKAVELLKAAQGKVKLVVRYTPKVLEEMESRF

T6: MPDZ_12, O75970
T6 sequence (O75970 1857-1958, limits assumed, looked up): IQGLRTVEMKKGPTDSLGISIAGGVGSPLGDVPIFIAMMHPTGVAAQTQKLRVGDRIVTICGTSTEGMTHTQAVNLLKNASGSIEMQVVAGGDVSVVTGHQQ

T7: SNTA1, Q13424
T7 sequence (Q13424 82-180, limits assumed, looked up): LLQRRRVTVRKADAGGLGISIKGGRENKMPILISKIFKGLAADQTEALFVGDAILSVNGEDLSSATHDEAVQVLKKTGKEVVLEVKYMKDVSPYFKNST

T8: SNTG2, Q9NY99
T8 sequence (Q9NY99 68-166, limits assumed, looked up): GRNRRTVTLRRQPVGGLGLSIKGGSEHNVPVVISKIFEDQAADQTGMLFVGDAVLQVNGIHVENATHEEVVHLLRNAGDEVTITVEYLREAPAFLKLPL

T9: SYNJ2BP, P57105
T9 sequence (P57105 8-110, limits assumed, looked up): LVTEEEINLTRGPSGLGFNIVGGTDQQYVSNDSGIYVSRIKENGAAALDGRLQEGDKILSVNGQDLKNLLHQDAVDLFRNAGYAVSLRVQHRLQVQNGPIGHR

T10: TIAM2, Q8IVF5
T10 sequence (Q8IVF5 885-986, limits assumed, looked up): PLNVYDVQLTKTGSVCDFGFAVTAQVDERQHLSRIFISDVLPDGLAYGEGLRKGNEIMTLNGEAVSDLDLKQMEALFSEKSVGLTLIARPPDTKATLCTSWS


Key:
Test in all cases: holdup assay
Set-up in all cases: key: below the threshold = too weak to quantify, mostly under pKd 3.1 to 4
Conditions in all cases: plain residues with an end cap or a label only (N-terminal biotin on a linker: ttds)
AHNAK1, Q09666 = molecular target: AHNAK1, Q09666
APBA3_1, O96018 = molecular target: T1, APBA3_1, O96018
CARD11, Q9BXL7 = molecular target: T2, CARD11, Q9BXL7
DLG1_3, Q12959 = molecular target: DLG1_3, Q12959
DLG2_2, Q15700 = molecular target: DLG2_2, Q15700
DLG4_3, P78352 = molecular target: DLG4_3, P78352
FRMPD2_2, Q68DX3 = molecular target: FRMPD2_2, Q68DX3
GORASP1, Q9BQQ3 = molecular target: GORASP1, Q9BQQ3
GORASP2, Q9H8Y8 = molecular target: GORASP2, Q9H8Y8
GRID2IP_1, A4D2P6 = molecular target: GRID2IP_1, A4D2P6
GRID2IP_2, A4D2P6 = molecular target: GRID2IP_2, A4D2P6
GRIP1_7, Q9Y3R0 = molecular target: T3, GRIP1_7, Q9Y3R0
GRIP2_5, Q9C0E4 = molecular target: GRIP2_5, Q9C0E4
GRIP2_7, Q9C0E4 = molecular target: GRIP2_7, Q9C0E4
HTRA2, O43464 = molecular target: HTRA2, O43464
HTRA3, P83110 = molecular target: T4, HTRA3, P83110
LDB3, O75112 = molecular target: LDB3, O75112
LIN7C, Q9NUP9 = molecular target: T5, LIN7C, Q9NUP9
MAGI2_2, Q86UL8 = molecular target: MAGI2_2, Q86UL8
MAGI2_5, Q86UL8 = molecular target: MAGI2_5, Q86UL8
MAST1, Q9Y2H9 = molecular target: MAST1, Q9Y2H9
MPDZ_12, O75970 = molecular target: T6, MPDZ_12, O75970
NHERF2_2, Q15599 = molecular target: NHERF2_2, Q15599
SCRIB_1, Q14160 = molecular target: SCRIB_1, Q14160
SNTA1, Q13424 = molecular target: T7, SNTA1, Q13424
SNTG2, Q9NY99 = molecular target: T8, SNTG2, Q9NY99
SYNJ2BP, P57105 = molecular target: T9, SYNJ2BP, P57105
TIAM2, Q8IVF5 = molecular target: T10, TIAM2, Q8IVF5

LDB3, O75112, sequence (O75112 1-94): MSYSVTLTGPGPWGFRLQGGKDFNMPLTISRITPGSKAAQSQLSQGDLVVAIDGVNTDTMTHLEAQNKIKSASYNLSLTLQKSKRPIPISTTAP
AHNAK1, Q09666, sequence (Q09666 4-100): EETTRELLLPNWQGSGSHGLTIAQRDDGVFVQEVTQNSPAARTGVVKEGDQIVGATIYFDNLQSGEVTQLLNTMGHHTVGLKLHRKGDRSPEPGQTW
DLG2_2, Q15700, sequence (Q15700 189-283): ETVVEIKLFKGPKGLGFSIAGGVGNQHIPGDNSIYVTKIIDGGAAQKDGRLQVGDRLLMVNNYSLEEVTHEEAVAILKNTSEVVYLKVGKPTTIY
DLG4_3, P78352, sequence (P78352 306-403): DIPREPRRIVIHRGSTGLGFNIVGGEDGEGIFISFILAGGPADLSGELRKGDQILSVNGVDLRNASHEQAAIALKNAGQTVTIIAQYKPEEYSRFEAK
NHERF2_2, Q15599, sequence (Q15599 142-238): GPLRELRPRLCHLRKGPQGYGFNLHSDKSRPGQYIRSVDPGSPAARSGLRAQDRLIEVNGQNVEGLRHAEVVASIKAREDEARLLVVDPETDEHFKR
GRIP2_7, Q9C0E4, sequence (Q9C0E4 934-1023): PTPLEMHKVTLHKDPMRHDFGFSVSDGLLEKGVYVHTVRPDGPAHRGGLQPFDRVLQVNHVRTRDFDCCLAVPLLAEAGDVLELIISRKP
GRID2IP_2, A4D2P6, sequence (A4D2P6 272-370): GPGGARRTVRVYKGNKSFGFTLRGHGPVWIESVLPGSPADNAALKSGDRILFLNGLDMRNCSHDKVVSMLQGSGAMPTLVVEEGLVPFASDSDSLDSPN
MAGI2_2, Q86UL8, sequence (Q86UL8 410-522): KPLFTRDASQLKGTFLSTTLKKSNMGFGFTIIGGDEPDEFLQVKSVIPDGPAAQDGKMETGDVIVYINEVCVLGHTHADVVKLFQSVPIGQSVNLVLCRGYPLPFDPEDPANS
GRIP2_5, Q9C0E4, sequence (Q9C0E4 544-642): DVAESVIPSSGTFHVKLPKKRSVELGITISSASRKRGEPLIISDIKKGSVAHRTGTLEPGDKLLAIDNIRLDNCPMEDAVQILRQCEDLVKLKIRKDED
GORASP1, Q9BQQ3, sequence (Q9BQQ3 1-208): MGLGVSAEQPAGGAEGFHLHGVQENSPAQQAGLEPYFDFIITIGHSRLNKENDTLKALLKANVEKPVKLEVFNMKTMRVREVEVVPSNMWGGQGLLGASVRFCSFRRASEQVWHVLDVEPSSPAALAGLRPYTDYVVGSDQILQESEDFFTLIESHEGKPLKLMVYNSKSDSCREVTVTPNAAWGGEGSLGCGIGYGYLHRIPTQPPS
FRMPD2_2, Q68DX3, sequence (Q68DX3 944-1038): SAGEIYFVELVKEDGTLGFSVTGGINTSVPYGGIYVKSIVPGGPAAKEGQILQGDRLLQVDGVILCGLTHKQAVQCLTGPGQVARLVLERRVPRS
GRID2IP_1, A4D2P6, sequence (A4D2P6 1-87): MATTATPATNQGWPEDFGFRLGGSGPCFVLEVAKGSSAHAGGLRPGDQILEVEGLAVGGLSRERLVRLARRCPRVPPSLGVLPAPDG
SCRIB_1, Q14160, sequence (Q14160 718-814): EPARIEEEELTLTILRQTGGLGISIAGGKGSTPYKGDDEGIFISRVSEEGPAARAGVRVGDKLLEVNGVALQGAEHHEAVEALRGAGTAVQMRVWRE
DLG1_3, Q12959, sequence (Q12959 457-571): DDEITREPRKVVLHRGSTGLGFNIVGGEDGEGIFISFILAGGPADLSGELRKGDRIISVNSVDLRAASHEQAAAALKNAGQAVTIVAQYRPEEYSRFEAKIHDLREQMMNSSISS
MAGI2_5, Q86UL8, sequence (Q86UL8 915-1017): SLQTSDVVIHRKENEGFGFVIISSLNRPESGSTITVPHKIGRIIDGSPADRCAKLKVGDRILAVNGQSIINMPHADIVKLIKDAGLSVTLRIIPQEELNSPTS
MAST1, Q9Y2H9, sequence (Q9Y2H9 962-1065): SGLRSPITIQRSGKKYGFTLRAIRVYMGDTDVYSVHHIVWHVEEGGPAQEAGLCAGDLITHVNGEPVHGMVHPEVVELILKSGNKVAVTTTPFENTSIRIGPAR
HTRA2, O43464, sequence (O43464 355-458): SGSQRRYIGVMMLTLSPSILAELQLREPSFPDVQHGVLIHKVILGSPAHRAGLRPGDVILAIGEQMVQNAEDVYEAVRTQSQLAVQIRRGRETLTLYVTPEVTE

Binder | pKd (AHNAK1, Q09666) | pKd (APBA3_1, O96018) | pKd (CARD11, Q9BXL7) | pKd (DLG1_3, Q12959) | pKd (DLG2_2, Q15700) | pKd (DLG4_3, P78352) | pKd (FRMPD2_2, Q68DX3) | pKd (GORASP1, Q9BQQ3) | pKd (GORASP2, Q9H8Y8) | pKd (GRID2IP_1, A4D2P6) | pKd (GRID2IP_2, A4D2P6) | pKd (GRIP1_7, Q9Y3R0) | pKd (GRIP2_5, Q9C0E4) | pKd (GRIP2_7, Q9C0E4) | pKd (HTRA2, O43464) | pKd (HTRA3, P83110) | pKd (LDB3, O75112) | pKd (LIN7C, Q9NUP9) | pKd (MAGI2_2, Q86UL8) | pKd (MAGI2_5, Q86UL8) | also measured
NYWPGKETQL [SLCO1C1, Q9NYB5] | below the threshold | below the threshold | below the threshold | 5.02 | 4.9 | 4.18 | below the threshold | below the threshold | 3.98 | below the threshold | 4.29 | below the threshold | below the threshold | below the threshold | below the threshold | below the threshold | below the threshold | 4.93 | 4.52 | 3.87 | pKd (MAST1, Q9Y2H9): 5.26; pKd (MPDZ_12, O75970): below the threshold; pKd (NHERF2_2, Q15599): 4.69; pKd (SCRIB_1, Q14160): 5.23; pKd (SNTA1, Q13424): 5.51; pKd (SNTG2, Q9NY99): 5.28; pKd (SYNJ2BP, P57105): 5.4; pKd (TIAM2, Q8IVF5): below the threshold
CNTVTVETVV [MAS1, P04201] | below the threshold | below the threshold | below the threshold | below the threshold | 4.19 | below the threshold | below the threshold | below the threshold | below the threshold | below the threshold | below the threshold | below the threshold | below the threshold | below the threshold | below the threshold | below the threshold | below the threshold | 3.64 | below the threshold | 3.95 | pKd (MAST1, Q9Y2H9): 3.58; pKd (MPDZ_12, O75970): below the threshold; pKd (NHERF2_2, Q15599): below the threshold; pKd (SCRIB_1, Q14160): below the threshold; pKd (SNTA1, Q13424): 4.34; pKd (SNTG2, Q9NY99): 3.93; pKd (SYNJ2BP, P57105): 3.98; pKd (TIAM2, Q8IVF5): below the threshold
DEDQHTQITKV [PTEN, P60484] | below the threshold | below the threshold | below the threshold | 3.71 | 3.55 | 3.56 | 4.19 | 3.88 | 3.82 | below the threshold | 4.03 | below the threshold | below the threshold | 3.55 | below the threshold | below the threshold | below the threshold | below the threshold | below the threshold | 4.15 | pKd (MAST1, Q9Y2H9): 4.79; pKd (MPDZ_12, O75970): below the threshold; pKd (NHERF2_2, Q15599): 4.29; pKd (SCRIB_1, Q14160): 4.83; pKd (SNTA1, Q13424): 4.04; pKd (SNTG2, Q9NY99): 4.03; pKd (SYNJ2BP, P57105): 3.65; pKd (TIAM2, Q8IVF5): below the threshold

Second part, led by results:

pKd (AHNAK1, Q09666) | pKd (APBA3_1, O96018) | pKd (CARD11, Q9BXL7) | pKd (DLG1_3, Q12959) | pKd (DLG2_2, Q15700) | pKd (DLG4_3, P78352) | pKd (FRMPD2_2, Q68DX3) | pKd (GORASP1, Q9BQQ3) | pKd (GORASP2, Q9H8Y8) | pKd (GRID2IP_1, A4D2P6) | pKd (GRID2IP_2, A4D2P6) | pKd (GRIP1_7, Q9Y3R0) | pKd (GRIP2_5, Q9C0E4) | pKd (GRIP2_7, Q9C0E4) | pKd (HTRA2, O43464) | pKd (HTRA3, P83110) | pKd (LDB3, O75112) | pKd (LIN7C, Q9NUP9) | pKd (MAGI2_2, Q86UL8) | pKd (MAGI2_5, Q86UL8) | Binder | also measured
below the threshold | below the threshold | below the threshold | 3.63 | below the threshold | below the threshold | below the threshold | below the threshold | 3.59 | below the threshold | 5.05 | 3.85 | below the threshold | below the threshold | below the threshold | below the threshold | below the threshold | below the threshold | 4.4 | below the threshold | RRVRKLPSTTL [RPS6KA1, Q15418] | pKd (MAST1, Q9Y2H9): 4.68; pKd (MPDZ_12, O75970): below the threshold; pKd (NHERF2_2, Q15599): 3.97; pKd (SCRIB_1, Q14160): 3.48; pKd (SNTA1, Q13424): 3.87; pKd (SNTG2, Q9NY99): 4.54; pKd (SYNJ2BP, P57105): 3.82; pKd (TIAM2, Q8IVF5): 3.5
below the threshold | below the threshold | below the threshold | below the threshold | 3.87 | below the threshold | below the threshold | below the threshold | below the threshold | below the threshold | 4.27 | below the threshold | below the threshold | below the threshold | below the threshold | 3.5 | below the threshold | below the threshold | 3.64 | 3.59 | QPGTPTRTAV [MAP2K2, P36507] | pKd (MAST1, Q9Y2H9): below the threshold; pKd (MPDZ_12, O75970): below the threshold; pKd (NHERF2_2, Q15599): below the threshold; pKd (SCRIB_1, Q14160): below the threshold; pKd (SNTA1, Q13424): below the threshold; pKd (SNTG2, Q9NY99): below the threshold; pKd (SYNJ2BP, P57105): below the threshold; pKd (TIAM2, Q8IVF5): below the threshold
